Patent US20110195911A1, “SYNTHETIC ANALOGS OF THE JUXTAMEMBRANE DOMAIN OF IGF1R AND USES THEREOF” (THE UNITED STATES OF AMERICA,AS REPRESENTED BY THE …, priority 2008, published 2011)
Where a SMILES comes first, the peptide text is derived from it. Where no end group is shown, it is not given here. [ ]: non-standard residue; d: D form. The star is where a group is joined. Palmitoyl = CCCCCCCCCCCCCCCC(=O)*

How the values were obtained:
[1] = system: MCF-7 breast cancer cells; test: MTT cell toxicity assay in MCF-7 breast cancer cells; assay type: cell-based; conditions: MCF-7 cells, MTT
Outline: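 MCF-7 cells seeded in 1% FBS medium, grown 24 h, then exposed to compounds at 0.1, 0.5, 2.5 or 5.0 μM (final, 0.5% FBS) for 48 h. MTT absorbance at 544 nm; growth relative to time-zero and untreated controls gave GI50 (50% growth inhibition) and TGI (zero net growth).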

breast cancer cell lines = test: Alternative potency assay (MTT, serum-free, IGF-1 added) in cancer cell lines, FIG. 1; assay type: cell-based; conditions: breast cancer cell lines (MCF-7, T47D), IGF-1 10 ng/mL
Method: An alternative potency assay was used to test compounds in MCF-7 (breast cancer), T47D (breast cancer), Colo 205 (colon cancer), JM-1 (rat hepatoma), Sk MeI-2 (melanoma), PLC (human hepatoma), and HepG2 (human hepatoma) cells. Cells were suspended at a concentration of approximately 5000 cells per 100 μL of suspension in a 5% FBS RPMI medium. The cells were seeded into 96-count wells and incubated over night. After one day's incubation, the 5% FBS medium was aspirated and replaced with 100 μL of no serum RPMI medium containing 1 mg Bovine Serum Albumin (BSA) per 1 mL RPMI. Various concentrations of the test compounds were prepared by dilution in no-serum medium containing 1 mg BSA/mL. […] Absorbance of the wells at 544 nm was determined by a FLUOstar/POLARstar Galaxy (BMG Lab Technologies GmbH) microplate reader. The activity was calculated from the data using the formula: 100×[(T−T0)/(C−T0)] for T>T0 and 100×[(T−T0)/T0] for T<T0, wherein T0 corresponds to cell density at the time of drug addition, “T” is the optical density of the test well after a 48-h period of exposure to test drug, and “C” is the control optical density. […]

[2] = target: Insulin-like growth factor 1 receptor (IGF1R) (UniProt P08069 31-1367, limits assumed); test: cell-based or functional assay
Chain of Insulin-like growth factor 1 receptor (IGF1R) (P08069 31-1367 limits assumed): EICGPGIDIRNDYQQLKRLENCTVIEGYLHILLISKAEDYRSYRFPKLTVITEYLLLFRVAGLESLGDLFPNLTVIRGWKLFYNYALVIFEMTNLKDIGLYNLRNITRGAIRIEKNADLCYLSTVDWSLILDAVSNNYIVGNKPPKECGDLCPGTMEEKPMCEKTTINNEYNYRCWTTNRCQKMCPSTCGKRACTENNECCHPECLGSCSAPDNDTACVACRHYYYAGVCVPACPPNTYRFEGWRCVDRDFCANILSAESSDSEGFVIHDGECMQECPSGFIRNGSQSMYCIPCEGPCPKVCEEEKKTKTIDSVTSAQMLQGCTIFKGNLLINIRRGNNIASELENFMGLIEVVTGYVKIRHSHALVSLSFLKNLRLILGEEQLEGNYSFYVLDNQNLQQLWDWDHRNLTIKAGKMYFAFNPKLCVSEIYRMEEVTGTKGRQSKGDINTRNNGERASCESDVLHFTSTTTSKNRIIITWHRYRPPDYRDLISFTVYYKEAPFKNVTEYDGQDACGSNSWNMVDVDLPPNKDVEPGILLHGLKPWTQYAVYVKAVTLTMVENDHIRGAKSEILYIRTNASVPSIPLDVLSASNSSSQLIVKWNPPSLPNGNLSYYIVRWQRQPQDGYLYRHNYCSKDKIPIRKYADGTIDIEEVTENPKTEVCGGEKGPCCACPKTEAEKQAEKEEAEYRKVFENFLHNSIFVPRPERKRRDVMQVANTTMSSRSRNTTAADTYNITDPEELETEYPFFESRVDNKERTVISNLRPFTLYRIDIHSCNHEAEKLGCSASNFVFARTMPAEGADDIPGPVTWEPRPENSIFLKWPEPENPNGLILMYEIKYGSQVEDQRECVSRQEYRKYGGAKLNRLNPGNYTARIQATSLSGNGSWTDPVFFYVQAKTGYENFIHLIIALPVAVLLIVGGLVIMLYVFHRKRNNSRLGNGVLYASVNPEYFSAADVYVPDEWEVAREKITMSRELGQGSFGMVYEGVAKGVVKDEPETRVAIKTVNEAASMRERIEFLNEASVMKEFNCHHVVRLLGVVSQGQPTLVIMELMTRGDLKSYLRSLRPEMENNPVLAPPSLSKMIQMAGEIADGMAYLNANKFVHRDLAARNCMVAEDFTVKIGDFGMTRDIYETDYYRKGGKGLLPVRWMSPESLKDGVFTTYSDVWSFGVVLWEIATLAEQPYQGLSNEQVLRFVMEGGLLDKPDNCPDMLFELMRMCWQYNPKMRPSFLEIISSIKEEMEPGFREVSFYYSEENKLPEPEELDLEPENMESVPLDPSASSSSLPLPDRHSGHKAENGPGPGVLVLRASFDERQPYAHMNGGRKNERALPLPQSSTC

Q: Which GI50 ([1]; final 0.5% FBS, two days with compound) does the source give for `CCCCCCCCCCCCCCCC(=O)N[C@@H](Cc1c[nH]cn1)C(=O)N[C@@H](CCCNC(=N)N)C(=O)N[C@@H](CCCCN)C(=O)N[C@@H](CCCNC(=N)N)C(=O)N[C@@H](CC(N)=O)C(=O)N[C@@H](CC(N)=O)C(=O)N[C@@H](CO)C(=O)N[C@@H](CCCNC(=N)N)C(=O)N[C@@H](CC(C)C)C(=O)NCC(=O)N[C@@H](CC(N)=O)C(=O)NCC(=O)N[C@H](C(=O)N[C@@H](CC(C)C)C(=O)N[C@@H](Cc1ccc(O)cc1)C(N)=O)C(C)C` [Peptide 9, Pal-HRKRNNSRLGNGVLY-NH2] (Palmitoyl-HRKRNNSRLGNGVLY-NH2) here?
A: 1650 ± 100 nM

Q: And the TGI ([1]; final 0.5% FBS, two days with compound, concentration of total growth inhibition (cytostatic))?
A: >5000 nM

Q: And the “growth inhibition / potency in MCF-7 cells (in words)” value ([1]; comparison with related peptides)?
A: did not improve the degree of folding or the potency

Q: What about the cell-growth inhibitory properties (breast cancer cell lines) of the same molecule?
A: significant cell-growth inhibitory properties

Q: Which results are given for Palmitoyl-RNNSRLGNGVLYASV-NH2 (not fully specified; printed as Pal-RNNSRLGNGVLYASV-NH2) [peptide 35 (Pal-RNNSRLGNGVLYASV-NH2)]?
A: GI50 (µM), MTT assay, MCF-7 cells [2]: 0.05 µM; TGI (µM), MTT assay, MCF-7 cells [2]: 2.5 µM

Q: Which results are given for Ac-[dY][dL][dV]G[dN]G[dL][dR][dS][dN][dN][dR][dK](Palmitoyl) [peptide 18 (Ac-YLVGNGLRSNNRK-(ε-Pal)), retro-inverso version of peptide 27]?
A: GI50 (µM), MTT assay, MCF-7 cells [2]: 0.04 µM; TGI (µM), MTT assay, MCF-7 cells [2]: 0.4 µM

B1: peptide 30 (Pal-RNNSRLGNGVL-NH2) (peptide)
peptide: Palmitoyl-RNNSRLGNGVL-NH2
SMILES: CCCCCCCCCCCCCCCC(=O)N[C@@H](CCCNC(=N)N)C(=O)N[C@@H](CC(N)=O)C(=O)N[C@@H](CC(N)=O)C(=O)N[C@@H](CO)C(=O)N[C@@H](CCCNC(=N)N)C(=O)N[C@@H](CC(C)C)C(=O)NCC(=O)N[C@@H](CC(N)=O)C(=O)NCC(=O)N[C@H](C(=O)N[C@@H](CC(C)C)C(N)=O)C(C)C
Q: What does the source list for B1?
A: GI50 (µM), MTT assay, MCF-7 cells [2]: 1.7 µM; TGI (µM), MTT assay, MCF-7 cells [2]: 3.7 µM

B2: peptide 20 (Pal-RLGNGVLY-NH2) (peptide)
peptide: Palmitoyl-RLGNGVLY-NH2
SMILES: CCCCCCCCCCCCCCCC(=O)N[C@@H](CCCNC(=N)N)C(=O)N[C@@H](CC(C)C)C(=O)NCC(=O)N[C@@H](CC(N)=O)C(=O)NCC(=O)N[C@H](C(=O)N[C@@H](CC(C)C)C(=O)N[C@@H](Cc1ccc(O)cc1)C(N)=O)C(C)C
Q: For B2, which “GI50 (µM), MTT assay, MCF-7 cells” value [2] is on record?
A: 0.2 µM

Q: And the “TGI (µM), MTT assay, MCF-7 cells” value [2]?
A: > 5 µM

B3: peptide 29 (Pal-RNNSRLGNGVLF-NH2) (peptide)
peptide: Palmitoyl-RNNSRLGNGVLF-NH2
SMILES: CCCCCCCCCCCCCCCC(=O)N[C@@H](CCCNC(=N)N)C(=O)N[C@@H](CC(N)=O)C(=O)N[C@@H](CC(N)=O)C(=O)N[C@@H](CO)C(=O)N[C@@H](CCCNC(=N)N)C(=O)N[C@@H](CC(C)C)C(=O)NCC(=O)N[C@@H](CC(N)=O)C(=O)NCC(=O)N[C@H](C(=O)N[C@@H](CC(C)C)C(=O)N[C@@H](Cc1ccccc1)C(N)=O)C(C)C
Q: Which results are given for B3?
A: GI50 (µM), MTT assay, MCF-7 cells [2]: 0.1 µM; TGI (µM), MTT assay, MCF-7 cells [2]: 1.2 µM

Q: For Palmitoyl-RNNSRLGNGVLYA-NH2 (not fully specified; printed as Pal-RNNSRLGNGVLYA-NH2) [peptide 33 (Pal-RNNSRLGNGVLYA-NH2)], which “GI50 (µM), MTT assay, MCF-7 cells” value [2] is on record?
A: 0.1 µM

Q: What about the “TGI (µM), MTT assay, MCF-7 cells” value [2] of the same molecule?
A: > 5 µM

B4: peptide 21 (Pal-VSAYLVGNGLRSNNR-NH2) (peptide)
peptide: Palmitoyl-[dV][dS][dA][dY][dL][dV]G[dN]G[dL][dR][dS][dN][dN][dR]-NH2
SMILES: CCCCCCCCCCCCCCCC(=O)N[C@@H](C(=O)N[C@H](CO)C(=O)N[C@H](C)C(=O)N[C@H](Cc1ccc(O)cc1)C(=O)N[C@H](CC(C)C)C(=O)N[C@@H](C(=O)NCC(=O)N[C@H](CC(N)=O)C(=O)NCC(=O)N[C@H](CC(C)C)C(=O)N[C@H](CCCNC(=N)N)C(=O)N[C@H](CO)C(=O)N[C@H](CC(N)=O)C(=O)N[C@H](CC(N)=O)C(=O)N[C@H](CCCNC(=N)N)C(N)=O)C(C)C)C(C)C
Q: What does the source list for B4?
A: GI50 (µM), MTT assay, MCF-7 cells [2]: 0.04 µM; TGI (µM), MTT assay, MCF-7 cells [2]: 0.1 µM

B5: peptide 3 (Pal-HRKRNNSRLGNGVLYASVN-NH2) (peptide)
peptide: Palmitoyl-HRKRNNSRLGNGVLYASVN-NH2
SMILES: CCCCCCCCCCCCCCCC(=O)N[C@@H](Cc1c[nH]cn1)C(=O)N[C@@H](CCCNC(=N)N)C(=O)N[C@@H](CCCCN)C(=O)N[C@@H](CCCNC(=N)N)C(=O)N[C@@H](CC(N)=O)C(=O)N[C@@H](CC(N)=O)C(=O)N[C@@H](CO)C(=O)N[C@@H](CCCNC(=N)N)C(=O)N[C@@H](CC(C)C)C(=O)NCC(=O)N[C@@H](CC(N)=O)C(=O)NCC(=O)N[C@H](C(=O)N[C@@H](CC(C)C)C(=O)N[C@@H](Cc1ccc(O)cc1)C(=O)N[C@@H](C)C(=O)N[C@@H](CO)C(=O)N[C@H](C(=O)N[C@@H](CC(N)=O)C(N)=O)C(C)C)C(C)C
Q: What does the source list for B5?
A: GI50 (µM), MTT assay, MCF-7 cells [2]: 1 µM; TGI (µM), MTT assay, MCF-7 cells [2]: 1.55 µM

Q: How did the “GI50 (µM), MTT assay, MCF-7 cells” value [2] turn out when Palmitoyl-RNNSRLGNGVLYAS-NH2 (not fully specified; printed as Pal-RNNSRLGNGVLYAS-NH2) [peptide 34 (Pal-RNNSRLGNGVLYAS-NH2)] was run?
A: 0.04 µM

Q: And the “TGI (µM), MTT assay, MCF-7 cells” value [2]?
A: > 5 µM

B6: peptide 4 (Pal-HRKRNNSRLGNGVLYASVNPEYFSAA-NH2) (peptide)
peptide: Palmitoyl-HRKRNNSRLGNGVLYASVNPEYFSAA-NH2
SMILES: CCCCCCCCCCCCCCCC(=O)N[C@@H](Cc1c[nH]cn1)C(=O)N[C@@H](CCCNC(=N)N)C(=O)N[C@@H](CCCCN)C(=O)N[C@@H](CCCNC(=N)N)C(=O)N[C@@H](CC(N)=O)C(=O)N[C@@H](CC(N)=O)C(=O)N[C@@H](CO)C(=O)N[C@@H](CCCNC(=N)N)C(=O)N[C@@H](CC(C)C)C(=O)NCC(=O)N[C@@H](CC(N)=O)C(=O)NCC(=O)N[C@H](C(=O)N[C@@H](CC(C)C)C(=O)N[C@@H](Cc1ccc(O)cc1)C(=O)N[C@@H](C)C(=O)N[C@@H](CO)C(=O)N[C@H](C(=O)N[C@@H](CC(N)=O)C(=O)N1CCC[C@H]1C(=O)N[C@@H](CCC(=O)O)C(=O)N[C@@H](Cc1ccc(O)cc1)C(=O)N[C@@H](Cc1ccccc1)C(=O)N[C@@H](CO)C(=O)N[C@@H](C)C(=O)N[C@@H](C)C(N)=O)C(C)C)C(C)C
Q: With B6 as the molecule, how does the “GI50 (µM), MTT assay, MCF-7 cells” value [2] read?
A: 1 µM

Q: What about the “TGI (µM), MTT assay, MCF-7 cells” value [2] of the same molecule?
A: > 5 µM
